Experimental findings from paper PMC10046250 are described below.

The target of the experiment is T1, mouse cholecystokinin 1 receptor (mouse (endogenous in isolated mouse pancreatic acini)) (UniProt O08786).
T1 sequence: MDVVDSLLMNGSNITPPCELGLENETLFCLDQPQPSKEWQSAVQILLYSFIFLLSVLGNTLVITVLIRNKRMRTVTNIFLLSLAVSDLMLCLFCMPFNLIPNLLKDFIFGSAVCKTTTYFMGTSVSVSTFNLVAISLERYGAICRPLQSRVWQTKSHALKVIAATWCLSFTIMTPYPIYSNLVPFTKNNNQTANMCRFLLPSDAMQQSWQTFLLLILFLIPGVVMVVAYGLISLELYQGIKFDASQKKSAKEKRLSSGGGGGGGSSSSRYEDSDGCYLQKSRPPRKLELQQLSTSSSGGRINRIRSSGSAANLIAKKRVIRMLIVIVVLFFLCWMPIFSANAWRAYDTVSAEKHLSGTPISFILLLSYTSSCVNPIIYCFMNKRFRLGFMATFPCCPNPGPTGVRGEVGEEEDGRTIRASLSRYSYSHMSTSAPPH

Where no end group is shown, it is not given here. [ ]: non-standard residue; d: D form. sY = N[C@@H](Cc1ccc(OS(=O)(=O)O)cc1)C(=O)O

As to D[sY]MGWMDF-NH2 (ends and bridges not checked) [Sulfated cholecystokinin octapeptide], the CCK concentration needed to induce regular cytosolic calcium oscillations (Fura-2 imaging) in perifused isolated mouse pancreatic acini (data in Figure S1) was 10 pM.
